B1: Pistol ribozyme (parent)
chain: GGGUCGUUGUUCCAUAAUCGCGUGGAUAUGGCACGCAAGUUUCUACCGGGCACCGUAAAUGUCCGACUGGAGCCGUUCGGGCGGCUAUAAACAGACCUCAGGCCCGAAGCGUGGCGGCACCUGCCGCCGGUGGUAAAAAAGAUCGGAAGAGCACACGUCU

Variants of: B1
Assay: aptazyme ON/OFF ratio, guanine; higher = stronger switching; co-transcriptional cleavage with and without guanine

In order of rising “aptazyme ON/OFF ratio” value:
1. GGGUCGCCAAUCGAUAAUCGCGUGGAUAUGGCACGCAAGUUUCUACCGGGCACCGUAAAUGUCCGACUGGAGCCGUUCGGGCGGCUAUAAACAGACCUCAGGCCCGAAGCGUGGCGGCACCUGCCGCCGGUGGUAAAAAAGAUCGGAAGAGCACACGUCU [U7C U8C G9A U10A C13G]  1.1
2. GGGUCGCCAUUCGAUAAUCGCGUGGAUAUGGCACGCAAGUUUCUACCGGGCACCGUAAAUGUCCGACUGGAGCCGUUCGGGCGGCUAUAAACAGACCUCAGGCCCGAAGCGUGGCGGCACCUGCCGCCGGUGGUAAAAAAGAUCGGAAGAGCACACGUCU [U7C U8C G9A C13G]  1.11
3. GGGUCGCCAAUGAAUAAUCGCGUGGAUAUGGCACGCAAGUUUCUACCGGGCACCGUAAAUGUCCGACUGGAGCCGUUCGGGCGGCUAUAAACAGACCUCAGGCCCGAAGCGUGGCGGCACCUGCCGCCGGUGGUAAAAAAGAUCGGAAGAGCACACGUCU [U7C U8C G9A U10A C12G C13A]  1.11
4. GGGUCGCCAAAGGAUAAUCGCGUGGAUAUGGCACGCAAGUUUCUACCGGGCACCGUAAAUGUCCGACUGGAGCCGUUCGGGCGGCUAUAAACAGACCUCAGGCCCGAAGCGUGGCGGCACCUGCCGCCGGUGGUAAAAAAGAUCGGAAGAGCACACGUCU [U7C U8C G9A U10A U11A C12G C13G]  1.12
5. GGGUCGCCAAUAGAUAAUCGCGUGGAUAUGGCACGCAAGUUUCUACCGGGCACCGUAAAUGUCCGACUGGAGCCGUUCGGGCGGCUAUAAACAGACCUCAGGCCCGAAGCGUGGCGGCACCUGCCGCCGGUGGUAAAAAAGAUCGGAAGAGCACACGUCU [U7C U8C G9A U10A C12A C13G]  1.12
6. GGGUCGCCAAAUGAUAAUCGCGUGGAUAUGGCACGCAAGUUUCUACCGGGCACCGUAAAUGUCCGACUGGAGCCGUUCGGGCGGCUAUAAACAGACCUCAGGCCCGAAGCGUGGCGGCACCUGCCGCCGGUGGUAAAAAAGAUCGGAAGAGCACACGUCU [U7C U8C G9A U10A U11A C12U C13G]  1.13
7. GGGUCGCCAAUUUAUAAUCGCGUGGAUAUGGCACGCAAGUUUCUACCGGGCACCGUAAAUGUCCGACUGGAGCCGUUCGGGCGGCUAUAAACAGACCUCAGGCCCGAAGCGUGGCGGCACCUGCCGCCGGUGGUAAAAAAGAUCGGAAGAGCACACGUCU [U7C U8C G9A U10A C12U C13U]  1.13
8. GGGUCGCCAAUUAAUAAUCGCGUGGAUAUGGCACGCAAGUUUCUACCGGGCACCGUAAAUGUCCGACUGGAGCCGUUCGGGCGGCUAUAAACAGACCUCAGGCCCGAAGCGUGGCGGCACCUGCCGCCGGUGGUAAAAAAGAUCGGAAGAGCACACGUCU [U7C U8C G9A U10A C12U C13A]  1.14
9. GGGUCGCCAAAGUAUAAUCGCGUGGAUAUGGCACGCAAGUUUCUACCGGGCACCGUAAAUGUCCGACUGGAGCCGUUCGGGCGGCUAUAAACAGACCUCAGGCCCGAAGCGUGGCGGCACCUGCCGCCGGUGGUAAAAAAGAUCGGAAGAGCACACGUCU [U7C U8C G9A U10A U11A C12G C13U]  1.15
10. GGGUCGCCAAUCAAUAAUCGCGUGGAUAUGGCACGCAAGUUUCUACCGGGCACCGUAAAUGUCCGACUGGAGCCGUUCGGGCGGCUAUAAACAGACCUCAGGCCCGAAGCGUGGCGGCACCUGCCGCCGGUGGUAAAAAAGAUCGGAAGAGCACACGUCU [U7C U8C G9A U10A C13A]  1.15
11. GGGUCGCCAAAAGAUAAUCGCGUGGAUAUGGCACGCAAGUUUCUACCGGGCACCGUAAAUGUCCGACUGGAGCCGUUCGGGCGGCUAUAAACAGACCUCAGGCCCGAAGCGUGGCGGCACCUGCCGCCGGUGGUAAAAAAGAUCGGAAGAGCACACGUCU [U7C U8C G9A U10A U11A C12A C13G]  1.16
12. GGGUCGCCAAUGUAUAAUCGCGUGGAUAUGGCACGCAAGUUUCUACCGGGCACCGUAAAUGUCCGACUGGAGCCGUUCGGGCGGCUAUAAACAGACCUCAGGCCCGAAGCGUGGCGGCACCUGCCGCCGGUGGUAAAAAAGAUCGGAAGAGCACACGUCU [U7C U8C G9A U10A C12G C13U]  1.16
13. GGGUCGCCAAUAAAUAAUCGCGUGGAUAUGGCACGCAAGUUUCUACCGGGCACCGUAAAUGUCCGACUGGAGCCGUUCGGGCGGCUAUAAACAGACCUCAGGCCCGAAGCGUGGCGGCACCUGCCGCCGGUGGUAAAAAAGAUCGGAAGAGCACACGUCU [U7C U8C G9A U10A C12A C13A]  1.19
14. GGGUCGCCAAAAUAUAAUCGCGUGGAUAUGGCACGCAAGUUUCUACCGGGCACCGUAAAUGUCCGACUGGAGCCGUUCGGGCGGCUAUAAACAGACCUCAGGCCCGAAGCGUGGCGGCACCUGCCGCCGGUGGUAAAAAAGAUCGGAAGAGCACACGUCU [U7C U8C G9A U10A U11A C12A C13U]  1.19
15. GGGUCGCCAAUUGAUAAUCGCGUGGAUAUGGCACGCAAGUUUCUACCGGGCACCGUAAAUGUCCGACUGGAGCCGUUCGGGCGGCUAUAAACAGACCUCAGGCCCGAAGCGUGGCGGCACCUGCCGCCGGUGGUAAAAAAGAUCGGAAGAGCACACGUCU [U7C U8C G9A U10A C12U C13G]  1.19
16. GGGUCGCCAAAAAAUAAUCGCGUGGAUAUGGCACGCAAGUUUCUACCGGGCACCGUAAAUGUCCGACUGGAGCCGUUCGGGCGGCUAUAAACAGACCUCAGGCCCGAAGCGUGGCGGCACCUGCCGCCGGUGGUAAAAAAGAUCGGAAGAGCACACGUCU [U7C U8C G9A U10A U11A C12A C13A]  1.2
17. GGGUCGCCAAAGAAUAAUCGCGUGGAUAUGGCACGCAAGUUUCUACCGGGCACCGUAAAUGUCCGACUGGAGCCGUUCGGGCGGCUAUAAACAGACCUCAGGCCCGAAGCGUGGCGGCACCUGCCGCCGGUGGUAAAAAAGAUCGGAAGAGCACACGUCU [U7C U8C G9A U10A U11A C12G C13A]  1.21
18. GGGUCGCCAAUAUAUAAUCGCGUGGAUAUGGCACGCAAGUUUCUACCGGGCACCGUAAAUGUCCGACUGGAGCCGUUCGGGCGGCUAUAAACAGACCUCAGGCCCGAAGCGUGGCGGCACCUGCCGCCGGUGGUAAAAAAGAUCGGAAGAGCACACGUCU [U7C U8C G9A U10A C12A C13U]  1.21
19. GGGUCGCCAUUCAAUAAUCGCGUGGAUAUGGCACGCAAGUUUCUACCGGGCACCGUAAAUGUCCGACUGGAGCCGUUCGGGCGGCUAUAAACAGACCUCAGGCCCGAAGCGUGGCGGCACCUGCCGCCGGUGGUAAAAAAGAUCGGAAGAGCACACGUCU [U7C U8C G9A C13A]  1.24
20. GGGUCGCCAUUGUAUAAUCGCGUGGAUAUGGCACGCAAGUUUCUACCGGGCACCGUAAAUGUCCGACUGGAGCCGUUCGGGCGGCUAUAAACAGACCUCAGGCCCGAAGCGUGGCGGCACCUGCCGCCGGUGGUAAAAAAGAUCGGAAGAGCACACGUCU [U7C U8C G9A C12G C13U]  1.24
21. GGGUCGCCAUUUUAUAAUCGCGUGGAUAUGGCACGCAAGUUUCUACCGGGCACCGUAAAUGUCCGACUGGAGCCGUUCGGGCGGCUAUAAACAGACCUCAGGCCCGAAGCGUGGCGGCACCUGCCGCCGGUGGUAAAAAAGAUCGGAAGAGCACACGUCU [U7C U8C G9A C12U C13U]  1.26
22. GGGUCGCCAAAUAAUAAUCGCGUGGAUAUGGCACGCAAGUUUCUACCGGGCACCGUAAAUGUCCGACUGGAGCCGUUCGGGCGGCUAUAAACAGACCUCAGGCCCGAAGCGUGGCGGCACCUGCCGCCGGUGGUAAAAAAGAUCGGAAGAGCACACGUCU [U7C U8C G9A U10A U11A C12U C13A]  1.27
23. GGGUCGCCAUUUAAUAAUCGCGUGGAUAUGGCACGCAAGUUUCUACCGGGCACCGUAAAUGUCCGACUGGAGCCGUUCGGGCGGCUAUAAACAGACCUCAGGCCCGAAGCGUGGCGGCACCUGCCGCCGGUGGUAAAAAAGAUCGGAAGAGCACACGUCU [U7C U8C G9A C12U C13A]  1.27
24. GGGUCGCCAUUUGAUAAUCGCGUGGAUAUGGCACGCAAGUUUCUACCGGGCACCGUAAAUGUCCGACUGGAGCCGUUCGGGCGGCUAUAAACAGACCUCAGGCCCGAAGCGUGGCGGCACCUGCCGCCGGUGGUAAAAAAGAUCGGAAGAGCACACGUCU [U7C U8C G9A C12U C13G]  1.27
25. GGGUCGCCAAUGGAUAAUCGCGUGGAUAUGGCACGCAAGUUUCUACCGGGCACCGUAAAUGUCCGACUGGAGCCGUUCGGGCGGCUAUAAACAGACCUCAGGCCCGAAGCGUGGCGGCACCUGCCGCCGGUGGUAAAAAAGAUCGGAAGAGCACACGUCU [U7C U8C G9A U10A C12G C13G]  1.27
26. GGGUCGCCAAAGCAUAAUCGCGUGGAUAUGGCACGCAAGUUUCUACCGGGCACCGUAAAUGUCCGACUGGAGCCGUUCGGGCGGCUAUAAACAGACCUCAGGCCCGAAGCGUGGCGGCACCUGCCGCCGGUGGUAAAAAAGAUCGGAAGAGCACACGUCU [U7C U8C G9A U10A U11A C12G]  1.33
27. GGGUCGCCAAUGCAUAAUCGCGUGGAUAUGGCACGCAAGUUUCUACCGGGCACCGUAAAUGUCCGACUGGAGCCGUUCGGGCGGCUAUAAACAGACCUCAGGCCCGAAGCGUGGCGGCACCUGCCGCCGGUGGUAAAAAAGAUCGGAAGAGCACACGUCU [U7C U8C G9A U10A C12G]  1.39
28. GGGUCGCCAAAUCAUAAUCGCGUGGAUAUGGCACGCAAGUUUCUACCGGGCACCGUAAAUGUCCGACUGGAGCCGUUCGGGCGGCUAUAAACAGACCUCAGGCCCGAAGCGUGGCGGCACCUGCCGCCGGUGGUAAAAAAGAUCGGAAGAGCACACGUCU [U7C U8C G9A U10A U11A C12U]  1.41
29. GGGUCGCCAAUACAUAAUCGCGUGGAUAUGGCACGCAAGUUUCUACCGGGCACCGUAAAUGUCCGACUGGAGCCGUUCGGGCGGCUAUAAACAGACCUCAGGCCCGAAGCGUGGCGGCACCUGCCGCCGGUGGUAAAAAAGAUCGGAAGAGCACACGUCU [U7C U8C G9A U10A C12A]  1.44
30. GGGUCGCCAAAACAUAAUCGCGUGGAUAUGGCACGCAAGUUUCUACCGGGCACCGUAAAUGUCCGACUGGAGCCGUUCGGGCGGCUAUAAACAGACCUCAGGCCCGAAGCGUGGCGGCACCUGCCGCCGGUGGUAAAAAAGAUCGGAAGAGCACACGUCU [U7C U8C G9A U10A U11A C12A]  1.5
31. GGGUCGCCAAUCCAUAAUCGCGUGGAUAUGGCACGCAAGUUUCUACCGGGCACCGUAAAUGUCCGACUGGAGCCGUUCGGGCGGCUAUAAACAGACCUCAGGCCCGAAGCGUGGCGGCACCUGCCGCCGGUGGUAAAAAAGAUCGGAAGAGCACACGUCU [U7C U8C G9A U10A]  1.54
32. GGGUCGCCAAUUCAUAAUCGCGUGGAUAUGGCACGCAAGUUUCUACCGGGCACCGUAAAUGUCCGACUGGAGCCGUUCGGGCGGCUAUAAACAGACCUCAGGCCCGAAGCGUGGCGGCACCUGCCGCCGGUGGUAAAAAAGAUCGGAAGAGCACACGUCU [U7C U8C G9A U10A C12U]  1.69
33. GGGUCGCCAUUUCAUAAUCGCGUGGAUAUGGCACGCAAGUUUCUACCGGGCACCGUAAAUGUCCGACUGGAGCCGUUCGGGCGGCUAUAAACAGACCUCAGGCCCGAAGCGUGGCGGCACCUGCCGCCGGUGGUAAAAAAGAUCGGAAGAGCACACGUCU [U7C U8C G9A C12U]  1.72
34. GGGUCGCCAUUCUAUAAUCGCGUGGAUAUGGCACGCAAGUUUCUACCGGGCACCGUAAAUGUCCGACUGGAGCCGUUCGGGCGGCUAUAAACAGACCUCAGGCCCGAAGCGUGGCGGCACCUGCCGCCGGUGGUAAAAAAGAUCGGAAGAGCACACGUCU [U7C U8C G9A C13U]  1.83
35. GGGUCGCCAAUCUAUAAUCGCGUGGAUAUGGCACGCAAGUUUCUACCGGGCACCGUAAAUGUCCGACUGGAGCCGUUCGGGCGGCUAUAAACAGACCUCAGGCCCGAAGCGUGGCGGCACCUGCCGCCGGUGGUAAAAAAGAUCGGAAGAGCACACGUCU [U7C U8C G9A U10A C13U]  2.14
36. GGGUCGCCAAACCAUAAUCGCGUGGAUAUGGCACGCAAGUUUCUACCGGGCACCGUAAAUGUCCGACUGGAGCCGUUCGGGCGGCUAUAAACAGACCUCAGGCCCGAAGCGUGGCGGCACCUGCCGCCGGUGGUAAAAAAGAUCGGAAGAGCACACGUCU [U7C U8C G9A U10A U11A]  3.49

Source: the RNAGym collection of RNA variant scans (doi:10.1021/acssynbio.7b00057)
